This test deals with T1, 人CD20 (human CD20) (human, UniProt P11836 1-297, limits assumed).
T1 construct: also called 人CD20蛋白; 抗原
T1 sequence (looked up): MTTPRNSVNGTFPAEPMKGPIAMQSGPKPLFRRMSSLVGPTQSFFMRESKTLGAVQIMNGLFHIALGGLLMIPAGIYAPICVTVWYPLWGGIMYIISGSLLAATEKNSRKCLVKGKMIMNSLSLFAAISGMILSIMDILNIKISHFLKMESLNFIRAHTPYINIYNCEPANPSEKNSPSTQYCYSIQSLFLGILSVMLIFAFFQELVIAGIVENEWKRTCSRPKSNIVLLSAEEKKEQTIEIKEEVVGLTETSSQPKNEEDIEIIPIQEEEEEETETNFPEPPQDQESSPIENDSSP
As to the kind of experiment: SPR (CM5 chip, antibody captured by anti-human capture antibody, antigen as analyte from 10 nM).

By Kd is commonly meant the concentration at which binding is half-saturated. Lower therefore signals tighter binding. As usually defined, the koff is the first-order rate constant of dissociation. High values mean fast dissociation, low ones slow dissociation. As usually defined, the kon is the second-order rate constant of association.

B1: Rituximab (antibody, V domains shown)
VH: QVQLQQPGAELVKPGASVKMSCKASGYTFTSYNMHWVKQTPGRGLEWIGAIYPGNGDTSYNQKFKGKATLTADKSSSTAYMQLSSLTSEDSAVYYCARSTYYGGDWYFNVWGAGTTVTVSA
VL: QIVLSQSPAILSASPGEKVTMTCRASSSVSYIHWFQQKPGSSPKPWIYATSNLASGVPVRFSGSGSGTSYSLTISRVEAEDAATYYCQQWTSNPPTFGGGTKLEIK
B1 gave a Kd of 5.46 nM, a koff of 0.000345 s⁻¹ and a kon of 63100 M⁻¹ s⁻¹.

B2: h12H7-IgG1 (antibody, V domains shown)
VH: QVQLVQSGAEVKKPGASVKVSCKASDYTFTSYAGKWVRQAPGQGLEWIGAIPTKGNDTSYNQFLKGRVTMTADTSTSTVYMELSSLRSEDTAVYYCAKGIDGCNFDYWGQGTTVTVSS
VL: DIQMTQSPSSVSASVGDRVTITCKASQRVATGVAWYQQKPGKAPKALIYSAIGNRTGVPSRFSGSGSGTDFTLTISSLQPEDFATYYCQQASKIDAYPTFGQGTKLEIK
Turning to B2, the Kd was 0.307 nM, the koff came out at 4.21e-05 s⁻¹ and the kon is 137000 M⁻¹ s⁻¹.

The values above are taken from patent CN112851810A (BEIJING GUANGWEI BIOTECHNOLOGY CO LTD, dated 2021).
